# Experimental data published in IntAct's records for PubMed 22085930.
# B1: Peroxisome assembly protein 22 (Saccharomyces cerevisiae), P39718 (parent)
# chain: MPPPSRSRINKTRTLGIVGTAIAVLVTSYYIYQKVTSAKEDNGARPPEGDSVKENKKARKSKCIIMSKSIQGLPIKWEEYAADEVVLLVPTSHTDGSMKQAIGDAFRKTKNEHKIIYCDSMDGLWSCVRRLGKFQCILNSRDFTSSGGSDAAVVPEDIGRFVKFVVDSDVEDVLIDTLCN
# partner: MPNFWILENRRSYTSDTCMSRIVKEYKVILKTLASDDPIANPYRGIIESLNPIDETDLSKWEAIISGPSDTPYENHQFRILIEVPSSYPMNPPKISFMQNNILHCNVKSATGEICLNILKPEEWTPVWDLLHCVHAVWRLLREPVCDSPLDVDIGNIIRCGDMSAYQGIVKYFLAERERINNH
# B2: Ubiquitin-conjugating enzyme E2-21 kDa (Saccharomyces cerevisiae), P29340 (parent)
# chain: B1 partner
# partner: B1 chain
# Variants of: B1
# Conditions: with ubcx_yeast PEX4, P29340
row,Variant,effect of a mutation on the interaction
1,MPPPSRSRINKTRTLGIVGTAIAVLVTSYYIYQKVTSAKEDNGARPPEGDSVKENKKARKSKCIIMSKSIQGLPIKWEEYAADEVVLLVPTSHTDGSMKQAIGDAFRKTKNEHKIIYCDSMDGLWSCVRRLGAFQCILNSRDFTSSGGSDAAVVPEDIGRFVKFVVDSDVEDVLIDTLCN [K133A],decreasing interaction

# Variants of: B2
# Conditions: with pex22_yeast PEX22, P39718
row,Variant,effect of a mutation on the interaction
1,MPNFWILENRRSYTSDTCMSRIVKEYKVILKTLASDDPIANPYRGIIESLNPIDETDLSKWEAIISGPSDTPYENHQFRILIEVPSSYPMNPPKISFMQNNILHCNVKSATGEICLNILKPEEWTPVWDLLHCVHAVWRLLREPVCDSPLDVDIGNIIRCGDMSAYQGIVKFFLAERERINNH [Y172F],decreasing interaction

# Variants of: B2
# Conditions: with pex22_yeast PEX22, P39718
# Remark: another data set of the same source
row,Variant,effect of a mutation on the interaction
1,MPNFWILENRRSYTSDTCMSRIVKEYKVILKTLASDDPIANPYRGIIESLNPIDETDLSKWEAIISGPSDTPYENHQFRILIEVPSSYPMNPPKISFMQNNILHCNVKSATGEICLNILKPEEWTPVWDLLHCVHAVWRLLREPVCDSPLDVDIGNIIRCGDMSAYQGIVKAFLAERERINNH [Y172A],disrupting interaction
